Measurements published in the Human Domainome abundance scans (Beltran et al. 2025).

B1: Calcium-binding protein 2, residues 155 to 219; numbered along this chain, Q9NPB3 (parent)
chain: RELRDAFREFDTNGDGRISVGELRAALKALLGERLSQREVDEILQDVDLNGDGLVDFEEFVRMMS

Variants of: B1
Experiment: abundance fitness (aPCA) (normalised: wild type 0, dead -1); higher = more abundant; growth selection in yeast, the domain comes from the species named
Conditions: Homo sapiens

Abundance fitness of substitutions, site by site:
G21: H -0.328, I -0.134, D 0.141, K -0.193, M -0.09, L -0.049, F 0.102, R -0.196, V -0.061, W -0.423, A 0, S -0.026, C -0.244, Q -0.001, P 0.044, T 0.01, N -0.064
L23: P -0.592, M 0.025, N -0.213, Q -0.468, C -0.139, S -0.238, G -0.193, Y -0.249, E -0.663, T -0.023, F -0.235, A 0.118, V -0.133
E9: T 0.039, S -0.133, L -0.201, G -0.016, V -0.03, P -0.451, D 0.003, Y -0.244, H -0.429, W -0.416, A -0.189, Q -0.032, F -0.294, M -0.135, R 0.085
K28: I 0.013, G -0.077, M -0.051, D 0.068, N -0.133, F -0.277, A 0.127, S -0.017, L -0.07, C -0.01
A26: N -0.266, P -0.251, M 0.111, V -0.095, G 0.05, D -0.379, H -0.228, K -0.587, L 0.073, R -0.371, C 0.215, E -0.86, S -0.214, F -0.041, Y -0.17, W -0.454, T -0.268
G16: E -0.1, A -0.332, P -1.19, F -0.992, C -0.527, M -0.376, V -1.14, W -0.454, R -0.428, H -0.897, Y -0.743, Q -0.223, S -0.261, L -0.669, D 0.023, I -1.2
I18: G -0.97, M 0.081, R -0.808, N -1.01, L 0.114, C -0.311, V -0.045, A -0.736, K -0.691, H -0.917, T -0.763, Y -0.592, F -0.747, P -1.15, E -1.01, D -0.965
A25: H -0.012, R 0.051, W -0.189, T -0.035, F -0.093, Q -0.068, M 0.019, L 0.139, Y -0.159, E 0.096, D 0.045, P -0.022, S 0.084, N -0.109, G 0.01, V -0.035, C 0.177
R8: T 0.031, Q -0.1, Y -0.153, C -0.141, P -0.573, K -0.068, A -0.04, S 0.01, V -0.162, G -0.238, I -0.156, D 0.045, M -0.043, E -0.004, N -0.023
N13: M -0.797, Q -0.924, D -0.019, P -0.811, A -0.537, T -0.404, Y -1.12, C -0.489, K -0.676, R -0.477, V -0.668, G -0.693, E -0.459, H -0.644, L -0.974, S -0.555
G14: R -0.018, E -0.165, P -0.621, Q 0.023, W -0.718, K 0.003, D -0.188, L -0.226, T -0.547, S -0.198, M -0.308, V -0.672, C -0.264
R17: T -0.217, Q -0.193, A 0.001, V -0.158, S -0.087, G 0.045, K 0.017, N -0.14, W -0.159, F -0.021, L 0.045, C 0.141, E -0.295, P -0.701, Y -0.02, I -0.141, M -0.099
A6: R 0.089, E -0.076, H -0.479, K 0.157, V 0.026, S -0.011, N 0.042, W -0.111, G -0.328, L -0.008, D -0.709, T 0.173, P -0.952, C 0.085
S19: E -0.169, W -0.58, M -0.285, G -0.045, A -0.372, H -0.459, D -0.059, T 0.227, Y -0.822, V -0.517, N 0.049, R -0.687, L -0.532, F -0.462, K -0.529, P -0.43, I -0.462, Q -0.584
T12: K -0.03, H 0.039, P -0.695, V -0.351, W -0.538, D -0.42, G -0.04, N 0.007, Q -0.148, C -0.148, S -0.035, R -0.201, E -0.087, F -0.493, L -0.279, M -0.349
D11: A -0.677, K -1.16, W -0.631, C -0.546, L -0.937, T -0.769, R -1.18, S -0.633, V -1.02, M -1.17, Y -0.651, P -0.992, H -1.17, E -0.972, Q -0.434
F7: Q -0.803, V -0.891, Y -0.259, I -0.644, R -0.995, P -0.997, G -1.03, C -0.422, W -0.142, H -1.18, M -0.33, T -0.713, K -1.12, E -0.841, N -1.44
E22: M -0.535, Q -0.357, C -0.469, N -0.726, T -0.486, I -0.729, A -0.342, P -1.05, W -0.837, R -0.549, Y -0.814, D -0.49, V -0.489, G 0.093
D5: P -0.665, T 0.038, Q -0.007, L -0.32, R -0.119, V -0.19, W -0.491, N -0.034, Y -0.451, S -0.382, I -0.219, M -0.171
L27: F 0.077, Y -0.136, I 0.102, S 0.161, E -0.311, W -0.137, A 0.122, Q -0.095, M -0.025, D -0.464, V 0.092, R -0.192, T 0.064, N 0.088, G 0.165, P -0.495, C 0.014, K -0.006, H -0.091
F10: Q 0.156, S -0.148, C -0.143, K -0.155, E -0.445, D -1.13, I -0.038, A 0.11, W -0.076, H 0.09, P -0.864, G -0.417, M -0.426, V -0.048, L -0.449, R -0.1, T -0.144
V20: L 0.093, H -0.043, K -0.639, S -0.164, Q -0.005, A -0.317, M 0.066, P 0.163, C 0.061, T -0.146, G 0.004, N 0.081
